Test results as given in patent US20030152959A1 (WISCONSIN ALUMNI RESEARCH FOUNDATION, published 2003).

Biological target: T1, estrogen receptor α (ERα) (human, UniProt P03372 1-595)
T1 construct: Used as 35S-methionine-labelled protein from rabbit reticulocyte lysate, as purified recombinant ERα, and in whole-cell extract of transfected COS cells; also called NR3A1
T1 sequence (looked up): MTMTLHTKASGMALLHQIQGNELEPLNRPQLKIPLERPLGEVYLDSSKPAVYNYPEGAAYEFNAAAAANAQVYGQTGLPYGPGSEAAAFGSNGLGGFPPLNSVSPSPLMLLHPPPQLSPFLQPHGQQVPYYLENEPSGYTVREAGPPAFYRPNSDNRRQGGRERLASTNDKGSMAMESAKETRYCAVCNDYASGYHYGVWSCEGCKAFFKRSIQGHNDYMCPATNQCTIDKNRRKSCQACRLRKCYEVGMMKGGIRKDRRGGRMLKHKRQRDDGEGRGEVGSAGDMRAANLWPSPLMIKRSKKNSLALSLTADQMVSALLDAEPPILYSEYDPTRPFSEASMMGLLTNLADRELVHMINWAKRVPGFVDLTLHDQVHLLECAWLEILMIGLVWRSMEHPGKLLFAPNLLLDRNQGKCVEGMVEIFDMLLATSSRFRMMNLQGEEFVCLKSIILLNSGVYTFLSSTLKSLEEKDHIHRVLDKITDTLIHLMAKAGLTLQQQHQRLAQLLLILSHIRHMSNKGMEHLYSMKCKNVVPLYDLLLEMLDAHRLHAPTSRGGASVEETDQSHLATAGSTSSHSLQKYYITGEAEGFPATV
Assay: GST-fusion protein binding experiment with purified recombinant ERα (data referred to Johnston 1996 thesis)

binding result: binds
B1: GST-TFIIB (other, UniProt Q00403 1-316, looked up)
chain: MASTSRLDALPRVTCPNHPDAILVEDYRAGDMICPECGLVVGDRVIDVGSEWRTFSNDKATKDPSRVGDSQNPLLSDGDLSTMIGKGTGAASFDEFGNSKYQNRRTMSSSDRAMMNAFKEITTMADRINLPRNIVDRTNNLFKQVYEQKSLKGRANDAIASACLYIACRQEGVPRTFKEICAVSRISKKEIGRCFKLILKALETSVDLITTGDFMSRFCSNLCLPKQVQMAATHIARKAVELDLVPGRSPISVAAAAIYMASQASAEKRTQKEIGDIAGVADVTIRQSYRLIYPRAPDLFPTDFKFDTPVDKLPQL
notes: not shown: glutathione S-transferase encoded by the pGEX vector
